Measured values from publication PMC5618700.

Biological target: the molecule itself
Experiment: SDS-PAGE without reducing agent (oligomerization assay) with Western blot; PLY 0.4 uM in solution without cholesterol or membranes, incubated 1 hr at 37°C with 0, 2.18, 4.36 or 8.73 uM EGCG (control with DMSO only); 5x loading buffer without β-ME, 10 min at 50°C; 6% SDS-PAGE, Western blot; oligomerization reduced by EGCG in a concentration-dependent manner

B1: Pneumolysin (PLY), wild type, His-tagged (natural protein, Streptococcus pneumoniae D39, UniProt Q04IN8 1-471, looked up)
chain: MANKAVNDFILAMNYDKKKLLTHQGESIENRFIKEGNQLPDEFVVIERKKRSLSTNTSDISVTATNDSRLYPGALLVVDETLLENNPTLLAVDRAPMTYSIDLPGLASSDSFLQVEDPSNSSVRGAVNDLLAKWHQDYGQVNNVPARMQYEKITAHSMEQLKVKFGSDFEKTGNSLDIDFNSVHSGEKQIQIVNFKQIYYTVSVDAVKNPGDVFQDTVTVEDLKQRGISAERPLVYISSVAYGRQVYLKLETTSKSDEVEAAFEALIKGVKVAPQTEWKQILDNTEVKAVILGGDPSSGARVVTGKVDMVEDLIQEGSRFTADHPGLPISYTTSFLRDNVVATFQNSTDYVETKVTAYRNGDLLLDHSGAYVAQYYITWDELSYDHQGKEVLTPKAWDRNGQDLTAHFTTSIPLKGNVRNLSVKIRECTGLAWEWWRTVYEKTDLPLVRKRTISIWGTTLYPQVEDKVEND
notes: no cleavage of the tag is described; also called PLY-WT
  binding result: binds
